Laboratory results as given in US20190055293.

Tested on: insulin

Substance	insulin disulfide reductase activity (turbidity, optical density at A595 nm)
Thioredoxin protein	The addition of RdCVF (LF) or Trx1 resulted in an increase in optical density at A595 nm
purified RdCVF(LF) protein (human rod-derived cone viability factor, long form)	The addition of RdCVF (LF) or Trx1 resulted in an increase in optical density at A595 nm
